The target in the assay is Human canonical CRB1 (Crumbs homolog 1) (UniProt P82279). Kind of assay: co-IP (FLAG-IP) and Western blot quantification. The settings on record: co-transfected in HEK293T cells; three biological replicates; parent: est. 1.0; read off a plot. For orientation: A western blot detects proteins with antibodies after separation by electrophoresis.
Sequence of Human canonical CRB1 (Crumbs homolog 1) (P82279 26-1406): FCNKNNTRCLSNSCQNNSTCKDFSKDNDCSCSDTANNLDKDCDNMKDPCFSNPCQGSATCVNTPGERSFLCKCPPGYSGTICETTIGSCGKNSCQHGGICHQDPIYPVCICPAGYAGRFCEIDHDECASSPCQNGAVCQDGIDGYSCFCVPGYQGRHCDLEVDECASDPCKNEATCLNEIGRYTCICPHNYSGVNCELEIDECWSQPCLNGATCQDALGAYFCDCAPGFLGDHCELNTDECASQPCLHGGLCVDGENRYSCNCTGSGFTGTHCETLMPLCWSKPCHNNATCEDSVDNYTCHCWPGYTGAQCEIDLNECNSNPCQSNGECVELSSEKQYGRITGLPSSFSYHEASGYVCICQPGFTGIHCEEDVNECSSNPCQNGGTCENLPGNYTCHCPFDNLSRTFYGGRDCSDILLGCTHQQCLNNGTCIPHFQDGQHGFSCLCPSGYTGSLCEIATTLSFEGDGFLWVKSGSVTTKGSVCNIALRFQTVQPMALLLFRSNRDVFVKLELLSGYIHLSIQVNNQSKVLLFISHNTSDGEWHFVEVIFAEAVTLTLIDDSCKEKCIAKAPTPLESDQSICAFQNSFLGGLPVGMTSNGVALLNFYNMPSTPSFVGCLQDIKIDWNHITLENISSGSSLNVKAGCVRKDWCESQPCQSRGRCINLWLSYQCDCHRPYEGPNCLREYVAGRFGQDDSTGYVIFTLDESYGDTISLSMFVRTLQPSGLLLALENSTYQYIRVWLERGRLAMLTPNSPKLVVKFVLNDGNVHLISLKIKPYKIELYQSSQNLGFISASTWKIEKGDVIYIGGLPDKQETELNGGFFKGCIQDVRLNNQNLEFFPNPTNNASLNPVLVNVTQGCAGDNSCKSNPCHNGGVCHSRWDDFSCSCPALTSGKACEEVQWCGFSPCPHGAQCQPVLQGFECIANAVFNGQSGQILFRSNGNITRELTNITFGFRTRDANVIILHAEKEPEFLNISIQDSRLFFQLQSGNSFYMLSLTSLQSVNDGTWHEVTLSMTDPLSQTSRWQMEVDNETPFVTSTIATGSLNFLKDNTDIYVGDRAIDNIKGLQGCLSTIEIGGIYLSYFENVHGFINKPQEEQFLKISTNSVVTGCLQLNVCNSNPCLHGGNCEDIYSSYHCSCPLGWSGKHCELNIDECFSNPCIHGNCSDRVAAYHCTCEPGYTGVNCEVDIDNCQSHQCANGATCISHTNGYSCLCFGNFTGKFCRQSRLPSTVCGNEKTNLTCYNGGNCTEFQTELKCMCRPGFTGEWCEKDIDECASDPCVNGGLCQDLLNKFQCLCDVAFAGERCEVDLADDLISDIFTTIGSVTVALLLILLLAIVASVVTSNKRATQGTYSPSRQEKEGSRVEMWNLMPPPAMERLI

As for “Human canonical CRB2 (Crumbs homolog 2) (from UniProt Q5IJ48-1) p.W498C”, the ratio to parent was 1.1.
On to “Human canonical CRB2 (Crumbs homolog 2) (from UniProt Q5IJ48-1) p.R628C”, for which the ratio to parent was determined as 0.97.
With “Human canonical CRB2 (Crumbs homolog 2) (from UniProt Q5IJ48-1) p.C629S”, the ratio to parent was 1.1.
The result for “Human canonical CRB2 (Crumbs homolog 2) (from UniProt Q5IJ48-1) p.R1115C” reads 1.
“Human canonical CRB2 (Crumbs homolog 2) (from UniProt Q5IJ48-1) p.C620S”: the ratio to parent is 1.1.
To “Human canonical CRB2 (Crumbs homolog 2) (from UniProt Q5IJ48-1) p.R633W” belongs 0.9.
Take “Human canonical CRB2 (Crumbs homolog 2) (from UniProt Q5IJ48-1) p.G839W”: the ratio to parent came to 0.94.
For “Human canonical CRB2 (Crumbs homolog 2) (from UniProt Q5IJ48-1) p.C1129S”, the ratio to parent was 1.2.
Take “Human canonical CRB2 (Crumbs homolog 2) (from UniProt Q5IJ48-1) p.L777H”: the ratio to parent stood at 1.1.
Regarding “Human canonical CRB2 (Crumbs homolog 2) (from UniProt Q5IJ48-1) p.N800K”, the ratio to parent turned out to be 1.1.

The values above are taken from PMC10992996.
